Measurements: article PMC4674680, “An in cellulo-derived structure of PAK4 in complex with its inhibitor Inka1” (Nature Communications, 2015)

Key:
[1] = target: T1, PAK4cat (Homo sapiens, UniProt O96013); experiment: In-vitro kinase assay, PAK4cat (phosphorylation of GST-Raf13); assay type: biochemical; details: in vitro
T1 construct: PAK1 (1–545) and PAK4 (286–591), respectively; 6His (N); made in house; host or cells: Escherichia coli BL21-CodonPlus(DE3)
Method: Purified PAK1 or PAK4 (50 nM in 25–50 μl) were incubated with 10 μM GST-Raf1S338 peptide in 10 μM ATP (2 μCi of γ32P ATP) of kinase buffer (25 mM HEPES, pH 7.3, 0.1% Triton X-100, 50 mM KCl, 10 mM MgCl2, 1 mM dithiothreitol) at 30 °C for 20 min. Samples were analysed by SDS–PAGE or adsorption of the GST substrate mix onto polyvinylidene difluoride membranes, followed by extensive washing to remove free γ32P-ATP. The synthetic peptides of 95% purity, as determined by HPLC and mass spectrometric analyses (GenScript), were soluble in aqueous PBS. Stock solutions (10 mM) were quantified via calculated extinction coefficients and absorbance measurements at 280 nm and stored at −80 °C. The diluted peptides were incubated at the indicated concentrations with the kinase on ice (10 min) before addition of γ32P ATP and subsequent incubation at 30 °C. The synthetic peptide array (Jerini Biotools) was phosphorylated in situ as described previously.

[2] = tested on: PAK4; experiment: Co-immunoprecipitation of HA-Inka1 by FLAG-tagged PAK4 constructs; assay type: binding, human; details: Fig. 1b; mammalian cells; PAK4* = RR48/49AE
Method: Transfection of cell culture and immunoprecipitation
Monkey COS-7 cells, human HEK293 and U2OS were grown in DMEM medium with 4,500 mg l^−1 glucose supplemented with 10% bovine calf serum (Hyclone). HeLa cells were grown in Eagle's MEM medium supplemented with L-glutamine, sodium bicarbonate, sodium pyruvate and 10% bovine calf serum. Transient transfections were performed with Lipofectamine 2000 according to recommended protocols. Typically, a total of 5 μg plasmid DNA was used per 60-mm dish; lysates were harvested 18 h later in ice-cold lysis buffer (0.5 ml; 25 mM HEPES, pH 7.3, 100 mM KCl, 5 mM MgCl2, 20 mM β-glycerophosphate, 5% glycerol, 0.5% Triton X-100, 5 mM dithiothreitol, 0.5 mM phenylmethyl sulfonyl fluoride, 1 mM Na3VO4 and 1 × protease inhibitor cocktail (Roche)). To test co-immunoprecipitation of proteins, the lysates were clarified by centrifugation (14,000g) and the clarified lysates were incubated while rolling (2 h) with 20 μl M2 anti-Flag Sepharose (Sigma-Aldrich, A2220). Rabbit anti-Flag (Sigma-Aldrich, F7425) or horseradish peroxidase-coupled anti-HA (Santa Cruz Biotechnology, sc-7392 HRP, 1 μg ml^−1) were used for western blot analysis.

T1 sequence (O96013 286-591): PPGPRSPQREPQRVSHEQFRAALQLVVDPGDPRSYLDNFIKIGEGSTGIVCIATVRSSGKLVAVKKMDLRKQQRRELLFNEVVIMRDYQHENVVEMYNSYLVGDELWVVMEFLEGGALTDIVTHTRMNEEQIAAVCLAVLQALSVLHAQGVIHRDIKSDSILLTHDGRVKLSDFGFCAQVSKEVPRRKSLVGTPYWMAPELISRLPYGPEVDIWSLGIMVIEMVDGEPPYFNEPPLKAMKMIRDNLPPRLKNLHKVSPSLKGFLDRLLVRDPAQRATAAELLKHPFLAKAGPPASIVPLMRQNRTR

B1: Inka1: endogenous PAK4 inhibitor, 30-kDa neural crest enriched protein (protein, UniProt Q96EL1 1-287, looked up)
PAK4-inhibitor INKA1: MDMHSARLDSFLSQLRWELLCGRDTGSPSMPGPLQPTSQTGPDVQPSHQLRASGALEEDSVCCVEEEEEEEEEAVVTEDRDAALGGPREHALDWDSGFSEVSGSTWREEELPVSQRPAPSAQPLRRQCLSVSGLPMPSRAPVASVPPVHHPRPKSTPDACLEHWQGLEAEDWTAALLNRGRSRQPLVLGDNCFADLVHNWMELPETGSEGGDGGGHRARARPPQFLLGLSEQLRRRLARARRTAMAGKRLSCPPRPEPELPADVSRFAALMSCRSRQPIICNDVSYL
[1]
  Affinity relative to AID or iBox-C, in words: much higher affinity than the corresponding AID
[2]
  Binding to activated PAK4* (mutated AID) versus wild-type PAK4, in words: significantly better than wild-type PAK4
